Measured values from the DeepSol protein solubility set.

Test: soluble on expression in E. coli; label from the status in PepcDB or PDB records

Sequence	soluble on expression in E. coli
GMGISNIKQLYSKWKSLQPLKPEDLKRWNDKFKLEFNYNSNHLEGNTLTYGQTKLLLMFGETSGNASLKDYEEMKAHNVGLEMIKQEAQDKERPLTESFIRELNRTILVQDYWKNAKTPDGQDIRMQIKVGEYKSRPNSVLTATGEVFSYASPEETPAFMTSLVDWYNLEADKGILTPVELAALLHYRYIRIHPFEDGNGRIARLLVNFVLHRYGYPMIVIHSEDKSNYLNILHQCDVEAGLTPSDGANATLNDILPFVNYLSSCLIRSLTLAIKAAKGESIEEEGDFDKK	soluble
MSLTIVAPMDEILERAHVVALPMRVKFRGIMVREAVLFDGPKGWGEFSPFVEYGVQEAAQWLRCGLEMAFQGPPPMIRDAVEVNATIPAVSPDQVPEILARYPGCTTVKVKVAEGDDAARVAMVREVLPDARIRVDANRGWTVDQAVAASKHLGELEYMEQPCASVAELAELRRRISVPIAADESIRRVSDPYEVARLHAADVAVVKAAPLGGPRNIVDIAKFYQQRGLSLTVASALDTGVGMNAGIAVAAAIDSNPAGLATQRLFVEDVTEPRTIVDGKMSVEMLAPDPARLAEFEVTGPRRDWWLDRVRGALECLHDFIPEGHHHHHH	soluble
GHMASGSLGELQESQSRLEAATKECQALEGRARAASEQARQLESEREALQQQHSVQVDQLRMQGQSVEAALRMERQAASEEKRKLAQLQVAYHQLFQEYDNHIKSSVVGSERKRGMQLEDLKQQLQQAEE	soluble
GPGSMLAQCSLFVQPRVFKGLVMRSHAPVACWAASLPWMTQQQRRRSSFASATPAAPSTDAGKGNYFHFFRIAKHPDLDVAALQKKYHNLQRLVHPDQQQVQAQQQQAEAADVAPATSSSPLPFACTSNEAKSSTDVSTYANAAYETLRAPYSRCRYLSRLVKAEEVKGNPLSAAEEEELLVEDDQRTMKAREVRPDAPMSDDFLMEMLAMNELIFAGDSSDEGVRQQWSVLRFDLEDRAVGYFKDAIKSWNDGDMGAFHHIVHEWTYVATALNNLKERMLE	not soluble
ELNNLRMTYERLRELSLNLGNRMVPPVGNFMPDSILKKMAAILPMNDSAFATLGTVEDKYRRRFKYFKATIADLSKKRSSE	soluble
RQEQTETLAEERAETVANLEELNALILQRMRTGILVVDSRQAILLANQAALGLLRQDDVQGASLGRHSPMLMHCMKQWRLNPSLRPPTLKVVPDGPTVQPSFISLNREDDQHVLIFLEDISQIAQQAQQMKLAGLGRLTAGIAHEIRNPLGAISHAAQLLQESEELDAPDRRLTQIIQDQSKRMNLVIENVLQLSRRRQAEPQQLDLKEWLQRFVDEYPGRLRNDSQLHLQLGAGDIQTRMDPHQLNQVLSNLVQNGLRYSAQAHGRGQVWLSLARDPESDLPVLEVIDDGPGVPADKLNNLFEPFFTTESKGTGLGLYLSRELCESNQARIDYRNREEGGGCFRITFA	not soluble
MGSDKIHHHHHHMKWSEYANLAQQSLEKFYLADTKEQFLNNFYPTENPEEDNKVFNYWWLAHLVEVRLDAYLRTKKQADLEVAEKTYLHNKNRNGGTLIHDFYDDMLWNALAAYRLYKATGKSIYLEDAQLVWQDLVDTGWNDIMGGGFAWRRPQMYYKNTPVNAPFIILSCWLYNELNETKYLEWAMKTYEWQTKVLVREDGFVEDGINRLEDGTIDYEWKFTYNQGVYIGANLELYRITKEAKYLDTANKTAAISLKELTEDGIFKDEGNGGDEGLFKGIFYRYFTDLIEETANKTYRDFVLNSCQILVENAKLDGYLLMGMNWKEKPSGKIPYSAELSGMIALEMAAKLE	not soluble
MANYWLYKSEPFKWSWEMQKAKGETGEEWTGVRNYQARNNMRAMKIGDKGFFYHSNEGLDVVGIVEVCALSHPDSTAEGDLKWDCVDIRAVCDMPQPVSLKDVKANPKLEKMSLVTSMRLSVQPVTEEEYLEVCRMGGLANPPKSPDLEHHHHHH	soluble
MCAVLRQPKCVKLRALHSACKFGVAARSCQELLRKGCVRFQLPMPGSRLCLYEDGTEVTDDCFPGLPNDAELLLLTAGETWHGYVSDITRFLSVFNEPHAGVIQAARQQLSDEQAPLRQKLLADLLHHVSQNITAETREQDPSWFEGLESRFRNKSGYLRYSCESRIRGYLREVSAYTSMVDEAAQEEYLRVLGSMCQKLKSVQYNGSYFDRGAEASSRLCTPEGWFSCQGPFDLESCLSKHSINPYGNRESRILFSTWNLDHIIEKKRTVVPTLAEAIQDGREVNWEYFYSLLFTAENLKLVHIACHKKTTHKLECDRSRIYRPQTGS	soluble
MERSLYSPDLRIPPANIHNNHLKIDTDRKIRFAITHPEIKKAKGTIVILESYANALEEYFLPMNEISNRGFYTAIFDWFGREESQPDKQKQSRYNYFNINNDINDLNEFLKNIVYCNCPPPYYMLTYGMGGLIALSGLDLINHKFNKMLCISPLFAPFGNKTNSFQHKLTQLLSDIGLGFLPAKGGEKLKQKSTQFMRINEAALSSDFLIKRPTSRWMASVLNAIDSVKKNILNGHLEIPTLFILANQNNIANNIEIRQLCQYTHLTDSITITGAELDTIMHEESYQKQFWIAFDAFIRG	not soluble
METDLLDADECSENEKTLESIEKVFSASHLLVKILEFSSAQHRQKLYIAGSRSRQGDLKGFLDLRLVNQQFNEGVCIAVRKEFKHIQIDIDDNFVRCNYFTIGLHHKPPEPGNRENANVEGEDGNPVEEDEEMPAHEDLPSEDTEDVRFLVKFLRWLAGTFDPIVENFKVFDSWSFKPCSLPPSWADRLTVFISMHPDMEYCNCEQCIRIARNCKESFGPLSFRMVEDALRDQNISYGALTFTDAFLADIAIAYTISIDNRDRFDANRFIRDFGGIRVDELTFAVQTLATYRDERPKPQPLEVLQLILRLWEAKTVEFEIVKFMENDYYLQRCAWERSGAFTLAHFATYSFQHFDEFVHVVPYKFSGTLDRDLRNEIMPIFDLRIDPSEGPLRMGSNLSLLSLASQNNENSTFTWINQGRIAFNMFRANHYMFITSGIVEFRGMLGTANWLKFTIRDMMRSTWGPRGSNVTERGKTVYWINFMEDVGDCIQIVWSEHAKELLETNFPNLVVTMNSSHAFRNCSNRRAATYNDSKRPDVQKKPINTFYCTFYDSVRNNTTHMKLIQIAN	not soluble
MIHKRTNEGDLVIESFADKRCKDLLEGNPPKGFPTTLVRIVQRKLFMLDKAVDLKDLRSPPGNRLEALKGERKGQYSIRINDQFRICFEWRSNGAYEVEIVDYH	not soluble
MSLCEDMLLCNYRKCRIKLSGYAWVTACSHIFCDQHGSGEFSRSPAICPACNSTLSGKLDIVRTELSPSEEYKAMVLAGLRPEIVLDISSRALAFWTYQVHQERLYQEYNFSKAEGHLKQMEKIYTQQIQSKDVELTSMKGEVTSMKKVLEEYKKKFSDISEKLMERNRQYQKLQGLYDSLRLRNITIANHEGTLEPSMIAQSGVLGFPLGNNSKFPLDNTPVRNRGDGDGDFQFRPFFAGSPTAPEPSNSFFSFVSPSRELEQQQVSSRAFKVKRI	soluble
MSLRKKIAAFGEVMMRLQVPGYELLSQANTLNYSFSGTGVNVVAALSHLGHEGLLISTLPENSVGDAAVSYIQKLGIQTSLVSRGGKYVGMYFLENGFGARASRVTYSNRLESSFNTASEEIYQFEEIAKEIDIVHFCGITLAMNDTVRHHMKSLARAVKENGGTVVFDCNYRPSLWGEDGYEQAKPHYEEMLGLADIVMMNEKDAMFVLGIKTEETEREAQLVDLIPKVAETYHIATIAGTHRSINSDNTHSLRGFICKDGTFTFAKTLTFSVYDRIGAGDAYTSGIIHGEIKEFAPEKAVSFASAAGMLAHTIVGDTPMSSEKDILRAMTASVGDVEREGHHHHHH	soluble
MGSDKIHHHHHHMFNLTKAFLKEVPTNAEVTDFHEVHGGDINKAYSLTDAQGGRYFLKVQPNSVLAFFQHEADGLKLLGQAARVPKVIALGHVGQDQWLLLEYLNATNYGNQYSLGQDLAKIHSITSPNGQFGFDKDFKAGKTSKINTWQSSWYEFFVKQRLNVLRELLINEGKWNDDQNYKKAIEIFQSLMEKHDSRPSLLHGDFWSGNFMFDADSGQPIFIDPDVYYGDPEFDIGITTVFGGFNQDFYVGYQSTKPFQSGAERRLMFYQLYYLMVHAHLFAGSYIQAYRGKLAQIIQQ	not soluble
MQLSTLTALSPLDGRYQDKVTPLRAIFSEFGLMKFRVAVEVRWLQKLASTADITEVPPFSTQANAFLDGIVANFNEADAARIKEIERTTNHDVKAVEYFLKEKIQNEVELVKVSEFIHFACTSEDINNLSHALMLSTARDEVILPEWQKLIDEITRLAEEYKTIPLLSRTHGQPASPSTVGKEMANVVYRLKRQFKQLQNAEILGKINGAVGNYNAHLSAYPNIDWHKFSEEFVTSLGIQWNPYTTQIEPHDYITEFFDAVVRFNTIIIDFDRDLWGYIALNHFKQRTIAGEIGSSTMPHKVNPIDFENSEGNLGLANAVMTHLGQKLPISRWQRDLTDSTVLRNLGVGLGYCLIAYASTRKGISKLEVNQPHLLEELNQNWEVLAEPIQTVMRRYGIEKPYEKLKELTRGKRVTEQAMREFIDKLDIPQEEKLRLQKLTPATYIGAAVELVEKLS	not soluble
TSADGLKLVANYLEAPSPSNTTIILAHGYRGKSGKVEMAGLARMYNQKFGYNVLMPDARAHGESEGKNIGFGWPERKDYVQWTNQVLDKNGDDTEIVLHGVSMGSSTVLMTSAEKLPKQVKSIIADCGYTSMDAELAYQLKAMFHLPKFPIIPMASLINKVKEGFFFSEASAINAVAETDLPIFYIHGDSDAFVPTSMVEELYDATKSYKEKWVVKGAEHGQAFTVEPETYEEKVRQFLTKTM	not soluble
MELQEVLHMNGGEGDTSYAKNSSYNLFLIRVKPVLEQCIQELLRANLPNINKCFKVGDLGCASGPNTFSTVRDIVQSIDKVGQEKKNELERPTIQIFLNDLFQNDFNSVFKLLPSFYRNLEKENGRKIGSCLIGAMPGSFYSRLFPEESMHFLHSCYCLHWLSQVPSGLVTELGISVNKGCIYSSKASRPPIQKAYLDQFTKDFTTFLRIHSEELISRGRMLLTFICKEDEFDHPNSMDLLEMSINDLVIEGHLEEEKLDSFNVPIYAPSTEEVKRIVEEEGSFEILYLETFNAPYDAGFSIDDDYQGRSHSPVSCDEHARAAHVASVVRSIYEPILASHFGEAILPDLSHRIAKNAAKVLRSGKGFYDSVIISLAKKPEKADM	soluble
IGQVNLQLRANFTYQTTDIIDKDEAANELWYKMDKGFQLNQSRGLIALGLFKDQDEIDRSPKQTSNRPILPGDIKYKDVNGDGVINDDDIVPLGYREVPGLQYGVGLSANWRNWNLSVLFQGTGKCDFFIGGNGPHAFRSERYGNILQAMVDGNRWIPKEISGTTATENPNADWPLLTYGNNDNNNRKSTFWLYERKYLRLRNVEVSYDFPQTWTRKFFVSNLRLGFVGQNLLTWAPFKMWDPEGTREDGSNYPINKTFSCYLQISF	not soluble
MKLVVCSESDTAGQNIKDNLLTFADFEEKDVGEFKLYLSDEFYIAETKERLIYADHIDEKLAKYIDFEEILFASRHSSKDGRKIFTVHVSGNVGTADFGGKPYSLAKPSPQTMKNYVLALRERLDRKPEFEFTMEVTHHGPSEISKPSAFYEIGSTEEEWKDREAAEVVAEAMLDAIRAEKMDWNVAVGVGGTHYAPRQTEIMLTTTFTFGHNFAKYTFEHLTAEFLVKAVKLSEAEYIIIDEKSVNSAVKKIVNEAAEVAGVEVLKSKKVKKDFRLV	soluble
